According to US10669350B2, “Antigen-binding constructs that bind to and inhibit catalase and/or superoxide dismutase as well as pharmaceutical compositions containing them for tumor therapy” (priority 2015, dated 2020):
Entries after “also recorded” stand apart in the source; their conditions may differ.

Key:
human SOD1 [1] = molecular target: T1, human SOD1 (Homo sapiens, UniProt P00441); assay: ELISA selection of clones binding to human SOD1
Description: The preparation was by immunizing alpacas with human SOD1 (SOD1=Cu/ZnSOD [EC 1.15.1.1] purified from human erythrocytes, obtained from Sigma (Schnelldorf), catalogue number S 9636) under supervision of a veterinary, obtaining RNA from the B cells of the animals, reverse transcription, cloning in E. coli and isolation via the phage display technology. […] In a second run, by employing the cell culture system described by Heinzelmann and Bauer (Multiple protective functions of catalase against intercellular apoptosis-inducing ROS signaling of human tumor cells, Biol. Chem. 391, 675-693, 2010) it was checked which of the single domain VHH fragments binding to SOD actually results in an inhibition of SOD, what is expressed in the tumor system used as ROS-dependent apoptosis induction in the cells, since by the inhibition of SOD the concentration of free superoxide anions dramatically increases due to the absence of the enzymatic dismutation and results in a parallel indirect inhibition of catalase. In the following, this is expressed as ROS-dependent apoptosis induction. In a further control trial the specific inhibition of SOD by recombinant single domain VHH fragments was verified by the fact that the increasing effect of these fragments on apoptosis induction by exogenously added HOCl was examined, as described in Bauer 2013 (HOCl-dependent singlet oxygen and hydroxyl radical generation modulate and induce apoptosis of malignant cells. Anticancer Res 33: 3589-3602, 2013).

[2] = test system: human neuroblastoma line SHEP; assay: Standard preparation for apoptosis induction in SHEP cells (percentage of apoptotic cells); type: cell-based
Method: (§1) The experiments shown in FIG. 13-24 were carried out with a standard preparation for the apoptosis induction that is based on the method performed in Heinzelmann and Bauer 2010. The tumor cells used were taken from an optimally growing semi-sealed culture, centrifuged and placed in fresh medium. The test was performed in 96-well cell culture plates with 12 500 MKN-45 cells/100 μl medium or 10 000 SHEP cells/100 μl medium. MKN-45 cells grow in suspension, SHEP cells are adherent. The tests with SHEP cells were started as soon as the cells had grown on. By adding increasing concentrations of single domain VHH fragments that either inhibit catalase or SOD the protection of the tumor cells from their own ROS signaling was annulled so that based on the cell-owned extracellular superoxide anion production the NO/peroxynitrite signal path and the HOCl path (with MKN-45 cells) or in case of the SHEP cells only the NO/peroxynitrite path could start when the cells were incubated at 37° C. The analysis of the signal paths was carried out by the application of inhibitors of the NADPH oxidase (AEBSF), the HOCl scavenger taurine, the peroxynitrite scavenger FeTPPS and the singlet oxygen scavenger histidine. In some experiments for comparison instead of the single domain VHH fragments either recombinant Fab fragments or monoclonal antibodies were applied. This is indicated in the respective illustrations.
(§2) Double preparations were examined at the times shown in the text by means of phase contrast reverse microscopy for the percentage of apoptotic cells. Here, the classical apoptosis criteria described and documented in Heinzelmann and Bauer 2010 such as condensation of the nucleus, fragmentation of the nucleus, and membrane blebbing were used. Per single preparation at least 250 randomly selected cells were examined for the presence of apoptosis features.
10 000 cells of the human neuroblastoma line SHEP per 100 μl medium were mixed with the given concentrations of the catalase-neutralizing single domain VHH fragment aCATcb0972, the SOD-neutralizing single domain VHH fragment aSOD0989, the SOD-binding but not neutralizing single domain VHH fragment aSODcb991 and the hybrid molecule aCATaSOD and incubated for 5 hours at 37° C., 5% CO2, before percentages of apoptotic cells were determined.
10 000 cells of the human neuroblastoma line SHEP per 100 μl medium were mixed with the given concentrations of the SOD-neutralizing single domain VHH fragment aSOD0989. Parallel preparations received 20 μM or 100 μM of the NO donor sodium nitroprusside or were incubated without a further additive. After 5 hours at 37° C., 5% CO2 the percentages of apoptotic cells were determined.

human SOD1 [3] = molecular target: T1, human SOD1; assay: Check for inhibition (neutralization) of SOD, ROS-dependent apoptosis induction and HOCl control trial; type: cell-based; set-up: endogenous in cells; host or cells: MKN-45 human gastric carcinoma cells
Description: Thus, the inhibition of the SOD mediated by single domain VHH or Fab fragments (comparison) can be determined by the fact that the apoptosis induction of tumor cells by exogenously added HOCl is employed as the test system. HOCl in a concentration depending manner induces apoptosis that is based on the interaction between HOCl and superoxide anions that results in the formation of aggressive hydroxyl radicals (Bauer G. HOCl-dependent singlet oxygen and hydroxyl radical generation modulate and induce apoptosis of malignant cells. Anticancer Res 33: 3589-3602, 2013). […] That is, the neutralizing effect of single domain VHH or Fab fragments can be determined by checking whether the inhibition of the apoptosis is abolished again by the single domain VHH or Fab fragments to be tested. The quantitative employment of said test system requires linking several simple steps the skilled person is familiar with. In the first step the concentration of commercially available HOCl (or sodium hypochlorite that sufficiently forms HOCl in medium) is determined that generates a significant quantifiable apoptosis signal within a reasonable trial time (1-2 hours). […] As soon as the first two steps have been satisfactorily performed there can take place the actual test of the inhibiting effect of the single domain VHH or Fab fragments. For that, selected concentrations of the fragments to be tested are pre-incubated for 20 minutes with the optimal concentration of SOD determined in advance in step #2. Subsequently, said mixture is added to the test cells. Thereafter, HOCl is added and the apoptosis induction is determined. […]
The preparation was by immunizing alpacas with human SOD1 (SOD1=Cu/ZnSOD [EC 1.15.1.1] purified from human erythrocytes, obtained from Sigma (Schnelldorf), catalogue number S 9636) under supervision of a veterinary, obtaining RNA from the B cells of the animals, reverse transcription, cloning in E. coli and isolation via the phage display technology. […] In the following, this is expressed as ROS-dependent apoptosis induction. […]

[4] = test system: MKN-45 gastric carcinoma cells; assay: Standard preparation for autocrine ROS-controlled apoptosis induction in tumor cells (percentage of apoptotic cells); type: cell-based, human
Method: as §1
as §2, with “features. […]” for “features.”

[5] = test system: human colon carcinoma xenotransplant; assay: Growth of human colon carcinoma xenotransplant on immunocompromised mice; type: in vivo
Method: The experiments carried out in FIGS. 28A and 28B and FIG. 29 were carried out by a commercial certified supplier (Oncotest GmbH, Freiburg). Here, xenotransplants of a human colon carcinoma were implanted in suitable mice. After the tumors had grown on and a certain minimum size had been achieved, the therapeutic test was started. aSODcb0989 in the indicated doses (mg/kg body weight) or buffer were intravenously applied twice a week. Also, the tumor sizes were measured twice a week by means of a caliber.

T1 sequence (P00441 2-154 limits assumed): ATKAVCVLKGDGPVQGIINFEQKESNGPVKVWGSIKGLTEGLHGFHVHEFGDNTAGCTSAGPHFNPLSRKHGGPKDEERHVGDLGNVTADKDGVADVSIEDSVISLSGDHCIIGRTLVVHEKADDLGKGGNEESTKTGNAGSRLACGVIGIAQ

Row | binding to human SOD1 (human SOD1 [1]) | neutralization (inhibition) of human SOD1 (human SOD1 [3]) | Molecule | concentration required for apoptosis-inducing effect relative to the neutralizing single domain VHH fragment ([2]; 5 hours) | apoptosis induction in SHEP cells ([2]; 5 hours at 37° C., 5% CO2) | apoptosis induction in the presence of peroxynitrite scavenger FeTPPS ([4]; 25 μM FeTPPS) | apoptosis induction in the presence of HOCl scavenger taurine ([4]; 50 mM taurine) | apoptosis induction in combination with 0.005 pg/ml of the complementary single domain VHH fragment ([4]; 3.5 hours, FIG. 18) | optimum conc. ([4]; Table 1, concentration necessary for optimum apoptosis induction, taken from FIGS. 13A, 13B, 15A, 15B, 20) | optimum conc. ([4]; Table 2, FIG. 20 experiment, 3.5 hours) | ROS signaling path induced ([4]; inhibitor analysis) | tumor growth versus control group ([5]; 0.03 mg/kg intravenously twice a week) | tumor growth versus control group ([5]; 0.3 mg/kg intravenously twice a week) | tumor growth versus control group ([5]; 0.9 mg/kg intravenously twice a week)
1 | bind to human SOD1 | do not neutralize it | aSODcb0991: single domain VHH fragment binding to human SOD1, but not neutralizing; SEQ ID NO: 16 (protein, SOD binding) VHH: MAQVQLVESGGGIVQPGGSLRLSCVASESISDIDAMYWHRQAPGKRRELVAGITNDGTEYFADSVKGRFAISRDNTKSSLYLQMNSLKLEDTAMYYCATLPNPPPGYWGQGTQVTVSSKKKHHHHHH | 10^6 fold | at high concentrations also achieves an apoptosis-inducing effect; also recorded: weak but significant apoptosis induction | – | – | – | – | – | – | – | – | –
2 | binds to | neutralizes human SOD1 | aSODcb0989: single domain VHH fragment that binds to and neutralizes human SOD1; SEQ ID NO: 15 (protein, SOD binding) VHH: MAQVQLVESGGGLVQSGGSLTLSCTASGFTISNYPMTWVRQAPGKGLEWVSRINSGGDRTLYADSVKGRFTVSRDNARNTMYLQMNNLKPEDTGLYFCADSGAGWRYWGQGTQVTVSSKKKHHHHHH | – | – | complete inhibition by means of FeTPPS | disappearance of an inhibition by taurine | noteworthy synergistic effect | 1.2 pg/mL | 0.35 pg/mL | exclusively via the NO/peroxynitrite path | there does not result a recognizable difference to the controls | very clearly differs from the control group | in some animals the growth inhibition is enhanced, whereas in other animals there is caused the contrary
